Results on three molecules are retold here after patent US20250297012A1 (HEFEI TG IMMUNOPHARMA, published 2025).

In assay [1] the target is T1, Human BCMA (ACRO biosystems, BCA-H522y) (human, UniProt Q02223 1-54).
T1 construct: Bought protein; also called human BCMA protein; BCMA antigen
T1 sequence (looked up): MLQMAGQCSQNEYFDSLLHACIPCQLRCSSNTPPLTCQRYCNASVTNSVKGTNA
Nature of the assay: ELISA, plate coated with human BCMA at 2 µg/mL, HRP-goat anti-human IgG, OD450. Here is the method:
(§1) Human BCMA (ACRO biosystems, BCA-H522y) or human CD16A antigen (ACRO biosystems, CDD-H52W1) was diluted to 2 μg/mL with the coating buffer (35 mM NaHCO₃, 15 mM Na₂CO₃, pH 9.6). 100 μL of the diluted solution was added to each well of the enzyme-linked plate and incubated overnight at 4° C. Then, the plate was washed three times with PBST (0.05% Tween 20-PBS, pH 7.2). 300 μL of blocking buffer (1% BSA, 0.05% Tween20-PBS, pH 7.2) was added to the plate and left to stand at room temperature for 2 hours. The plate was washed three times with PBST again. The corresponding bispecific antibody or the control antibody hIgG1 was added to each well and incubated at room temperature for 1 hour. The precipitate was washed three times with PBST. 100 μL of HRP-goat anti-human IgG secondary antibody (Jackson ImmunoResearch, 109-036-170) diluted with the blocking buffer was added to each well and incubated at room temperature for 1 hour. The plate was washed three times with PBST. TMB was added to each well. A reaction was performed at room temperature in the dark for 2 min to 5 min. The reaction was terminated by adding 2 M sulfuric acid to each well. OD450 values were read using a microplate reader.

The target of assay [2] is T2, human CD16A antigen (ACRO biosystems, CDD-H52W1) (human, UniProt P08637 17-208, limits assumed).
T2 construct: Bought protein; also called human CD16A protein
The assay is described as follows: ELISA, plate coated with human CD16A at 2 µg/mL, HRP-goat anti-human IgG, OD450. Here is the method:
as §1

Assay [3] addresses T3, human CD16A^158V (ACRO biosystems, CD8-H52H4) (human, UniProt P08637 17-208).
T3 construct: Bought protein; It is the 158V polymorphic form; also called human CD16A^158V protein
Nature of the assay: ELISA, plate coated with human CD16A^158V at 2 µg/mL, HRP-goat anti-mouse IgG, OD450. Here is the method:
(§2) The ELISA experiment was performed to detect the binding properties of the murine CD16A antibody m40F5 obtained in Example 1. […] Then, the plate was then washed three times with PBST (0.05% Tween 20-PBS, pH 7.2). 300 μL of blocking buffer (1% BSA, 0.05% Tween20-PBS, pH 7.2) was added to the plate and left to stand at room temperature for 2 hours. Then, the plate was washed again three times with PBST. Murine antibody m40F5 or control antibody LS21 (WO2006/125668 EN) was added to each well and incubated at room temperature for 1 hour.
(§3) Again, the plate was washed three times with PBST. 100 μL of HRP-goat anti-mouse IgG secondary antibody (boster, Catalog No. BA1051) diluted with the blocking buffer was added to each well and incubated at room temperature for 1 hour. The plate was washed three times with PBST. TMB was added to each well. A reaction was performed at room temperature in the dark for 2 min to 5 min. The reaction was terminated with 2 M sulfuric acid. OD450 values were read using a microplate reader.
On the technique in general: ELISA stands for enzyme-linked immunosorbent assay.

Assay [4] has as its target T4, human CD16A^158F (ACRO biosystems, CDA-H5220) (human, UniProt P08637 17-208).
T4 construct: extracellular domain; Bought protein; also called human CD16A extracellular segment protein
The assay is described as follows: ELISA, plate coated with human CD16A^158F at 2 µg/mL, HRP-goat anti-mouse IgG, OD450. As to the method:
as §2, §3

The target of assay [5] is T5, cynomolgus monkey CD16 (ACRO biosystems, FC6-C52H9) (cynomolgus monkey, UniProt Q8SPW2 17-208).
T5 construct: Bought protein; also called monkey CD16 protein; monkey CD16 antigen
The assay is described as follows: ELISA, plate coated with cynomolgus monkey CD16 at 2 µg/mL, HRP-goat anti-mouse IgG, OD450. Here is the method:
as §2, §3

The target of assay [6] is T6, human CD16A protein on CHO-K1 cells overexpressing human CD16A (human, UniProt P08637 17-254).
T6 construct: also called CHO cell overexpressing a human CD16A protein
The assay is described as follows: Flow cytometry on CHO-K1 cells overexpressing human CD16A, Alexa-647 goat anti-mouse secondary antibody, binding proportion (%). Here is the method: (§4) The CHO-K1 cells overexpressing human CD16A or CHO-K1 cells overexpressing cynomolgus monkey CD16 obtained in Example 1 were diluted to 2×10⁶/mL with PBS and added to a 1.5 mL EP tube at a volume of 100 μL/tube. Then, 10 μL of goat serum was added to each tube. The mixture was blocked at 4° C. for 30 min. The CD16A antibody and the control antibody mlgG at gradient concentrations (5-fold serial dilution, with the highest final concentration of 10 μg/mL) were added and incubated at 4° C. for 30 minutes. Each EP tube was filled with 1 mL of PBS and centrifuged at 3,500 rpm for 5 min at 4° C. The supernatant was completely discarded, and the cells were washed once again with PBS. After another centrifugation, the supernatant was completely discarded. The cells were resuspended in 100 μL/tube of PBS. Alexa-647-conjugated goat anti-murine antibody secondary antibody (Invitrogen) was added at […]. The cells were incubated at 4° C. in the dark for 30 min, and were washed twice with PBS and centrifuged. Then, the supernatant was completely discarded. The cells were resuspended in 200 μL/tube of PBS and detected using a flow cytometer.
For orientation: Flow cytometry measures light scatter and fluorescence of single cells or particles in a stream.

Assay [7] has as its target T7, cynomolgus monkey CD16 protein on CHO-K1 cells overexpressing cynomolgus monkey CD16 (cynomolgus monkey, UniProt Q8SPW2 17-254).
T7 construct: also called CHO cell overexpressing a cynomolgus monkey CD16A protein; monkey CD16A protein
Nature of the assay: Flow cytometry on CHO-K1 cells overexpressing cynomolgus monkey CD16, Alexa-647 goat anti-mouse secondary antibody, binding proportion (%). As to the method: as §4

Assay [8] deals with T8, human CD16B^SH (Sino Biological, 11046-H08H2) (human, UniProt O75015 17-200).
T8 construct: Bought protein; SH polymorphic form; also called human CD16B^SH protein
Nature of the assay: ELISA, plate coated with human CD16B^SH at 2 µg/mL, HRP-goat anti-mouse IgG, OD450. As to the method:
as §2, §3

Assay [9] has as its target T9, human CD16B^NA2 (ACRO biosystems, CDB-H5222) (human, UniProt O75015 17-200).
T9 construct: Bought protein; NA2 polymorphic form; also called human CD16B^NA2 protein
Nature of the assay: ELISA, plate coated with human CD16B^NA2 at 2 µg/mL, HRP-goat anti-mouse IgG, OD450. Here is the method:
as §2, §3

For assay [10], the target named is T10, human CD16B^NA1 (ACRO biosystems, CDB-H5227) (human, UniProt O75015 17-200, limits assumed).
T10 construct: Bought protein; NA1 polymorphic form; also called human CD16B^NA1 protein
Nature of the assay: ELISA, plate coated with human CD16B^NA1 at 2 µg/mL, HRP-goat anti-mouse IgG, OD450. As to the method:
as §2, §3

Assay [11] deals with T11, Human B7H6 (ACRO biosystems, B76-H52H8) (human, UniProt Q68D85 25-262).
T11 construct: Bought protein; also called human B7H6 protein; B7H6 antigen
T11 sequence (looked up): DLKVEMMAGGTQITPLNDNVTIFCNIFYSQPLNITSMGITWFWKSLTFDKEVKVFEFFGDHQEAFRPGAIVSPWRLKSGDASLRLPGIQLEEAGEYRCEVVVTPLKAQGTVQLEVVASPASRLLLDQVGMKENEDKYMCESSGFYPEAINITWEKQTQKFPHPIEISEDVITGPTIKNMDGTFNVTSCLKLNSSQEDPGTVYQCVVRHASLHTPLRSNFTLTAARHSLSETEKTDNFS
Nature of the assay: ELISA, plate coated with human B7H6 at 2 µg/mL, HRP-goat anti-human IgG, OD450. Here is the method: (§5) Human B7H6 (ACRO biosystems, B76-H52H8) or human CD16A antigen (ACRO biosystems, Catalog No. CDA-H5220) was diluted to 2 μg/mL with the coating buffer (35 mM NaHCO₃, 15 mM Na₂CO₃, pH 9.6). 100 μL of the diluted solution was added to each well of the enzyme-linked plate and incubated overnight at 4° C. Then, the plate was washed three times with PBST (0.05% Tween 20-PBS, pH 7.2). 300 μL of blocking buffer (1% BSA, 0.05% Tween20-PBS, pH 7.2) was added to the plate and left to stand at room temperature for 2 hours. The plate was washed three times with PBST again. The corresponding bispecific antibody or control antibody hIgG was added to each well and incubated at room temperature for 1 hour. Again, the plate was washed three times with PBST. 100 μL of HRP-goat anti-human IgG secondary antibody (Jackson ImmunoResearch, 109-036-170) diluted with the blocking buffer was added to each well and incubated at room temperature for 1 hour. After incubation, the precipitate was washed three times with PBST. TMB was added to each well. A reaction was performed at room temperature in the dark for 2 min to 5 min. The reaction was terminated by adding 2 M sulfuric acid to each well. OD450 values were read using a microplate reader.

The target in assay [12] is T4, human CD16A^158F (ACRO biosystems, …). The assay is described as follows: ELISA, plate coated with human CD16A at 2 µg/mL, HRP-goat anti-human IgG, OD450. As to the method: as §5

T4 sequence (P08637 17-208): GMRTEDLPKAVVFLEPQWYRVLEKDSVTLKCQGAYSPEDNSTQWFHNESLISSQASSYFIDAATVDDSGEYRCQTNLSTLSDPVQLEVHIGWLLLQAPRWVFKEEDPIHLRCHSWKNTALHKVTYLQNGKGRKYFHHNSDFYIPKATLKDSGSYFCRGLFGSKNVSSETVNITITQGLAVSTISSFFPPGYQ
T7 sequence (Q8SPW2 17-254 limits assumed): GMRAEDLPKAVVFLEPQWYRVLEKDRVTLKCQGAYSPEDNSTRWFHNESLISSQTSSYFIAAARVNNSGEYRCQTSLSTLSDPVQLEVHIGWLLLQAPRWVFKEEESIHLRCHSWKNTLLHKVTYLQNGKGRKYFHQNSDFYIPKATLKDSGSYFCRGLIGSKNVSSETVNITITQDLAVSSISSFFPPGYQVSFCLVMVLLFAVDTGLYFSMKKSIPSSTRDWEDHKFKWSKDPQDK
T10 sequence (O75015 other isoform, or with tags, fused parts or gaps limits assumed): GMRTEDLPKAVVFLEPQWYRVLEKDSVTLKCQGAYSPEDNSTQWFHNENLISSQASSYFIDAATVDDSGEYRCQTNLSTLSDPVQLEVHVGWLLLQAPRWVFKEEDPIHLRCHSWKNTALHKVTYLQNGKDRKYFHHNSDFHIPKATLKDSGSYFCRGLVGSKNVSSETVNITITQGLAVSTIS
T9 sequence (O75015 17-200 N65S limits assumed): as the sequence (O75015 other isoform, or with tags, fused parts or gaps limits assumed) above, with R20S, N49S, D66N, V90I counted along it
T2 sequence (P08637 17-208 limits assumed): as the sequence (P08637 17-208) above
T5 sequence (Q8SPW2 17-208 limits assumed): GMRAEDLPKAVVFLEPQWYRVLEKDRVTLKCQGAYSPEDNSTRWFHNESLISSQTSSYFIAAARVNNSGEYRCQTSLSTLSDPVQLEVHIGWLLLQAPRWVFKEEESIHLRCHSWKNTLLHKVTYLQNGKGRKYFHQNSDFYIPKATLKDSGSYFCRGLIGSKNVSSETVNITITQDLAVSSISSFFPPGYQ
T3 sequence (P08637 17-208 F176V limits assumed): as the sequence (P08637 17-208) above, with F160V counted along it
T6 sequence (P08637 17-254 limits assumed): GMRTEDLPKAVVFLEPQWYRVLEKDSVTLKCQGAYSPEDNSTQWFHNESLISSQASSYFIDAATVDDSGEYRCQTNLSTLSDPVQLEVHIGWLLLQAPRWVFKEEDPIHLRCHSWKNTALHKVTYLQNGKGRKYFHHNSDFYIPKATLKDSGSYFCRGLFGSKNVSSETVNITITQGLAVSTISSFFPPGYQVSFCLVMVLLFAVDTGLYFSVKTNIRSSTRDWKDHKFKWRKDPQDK
T8 sequence (O75015 17-200 N65S/A78D limits assumed): as the sequence (O75015 other isoform, or with tags, fused parts or gaps limits assumed) above, with R20S, N49S, A62D, D66N, V90I counted along it

B1: bispecific antibody CD16A×BCMA (bispecific antibody, human IgG1, L234A L235A)
chain 1: not shown
chain 2: DIQMTQSPSSLSASVGDRVTITCSASQDISNYLNWYQQKPGKAPKLLIYYTSNLHSGVPSRFSGSGSGTDFTLTISSLQPEDFATYYCQQYRKLPWTFGQGTKLEIKRGGGGSGGGGSGGGGSQVQLVQSGAEVKKPGSSVKVSCKASGGTFSNYWMHWVRQAPGQGLEWMGATYRGHSDTYYNQKFKGRVTITADKSTSTAYMELSSLRSEDTAVYYCARGAIYDGYDVLDNWGQGTLVTVSSEPKSCDKTHTCPPCPAPEAAGGPSVFLFPPKPKDTLMISRTPEVTCVVVDVSHEDPEVKFNWYVDGVEVHNAKTKPREEQYNSTYRVVSVLTVLHQDWLNGKEYKCKVSNKALPAPIEKTISKAKGQPREPQVCTLPPSREEMTKNQVSLSCAVKGFYPSDIAVEWESNGQPENNYKTTPPVLDSDGSFFLVSKLTVDKSRWQQGNVFSCSVMHEALHNHYTQKSLSLSPGK
notes: also called CD16A×BCMA bispecific antibody
For B1, the half-maximal effective concentration (EC50 (read off the curve)) (as a rule, the concentration giving half of the maximal effect) in [1] is around 0.006 µg/mL; in [2], around 0.04 µg/mL.

B2: murine CD16A antibody m40F5 (antibody, mouse IgG2a, kappa)
heavy: DVQLQESGPGLVKPSQSLSLTCTVTGYSITSDYAWNWIRQFPGNKLEWMGYISYSGYTNYNPSLESRISVTRDTSKNQFFLQLNSVTTEDTATYYCAREVGLRLGWFAYWGQGTLVAVSAAKTTAPSVYPLAPVCGDTTGSSVTLGCLVKGYFPEPVTLTWNSGSLSSGVHTFPAVLQSDLYTLSSSVTVTSSTWPSQSITCNVAHPASSTKVDKKIEPRGPTIKPCPPCKCPAPNLLGGPSVFIFPPKIKDVLMISLSPIVTCVVVDVSEDDPDVQISWFVNNVEVHTAQTQTHREDYNSTLRVVSALPIQHQDWMSGKEFKCKVNNKDLPAPIERTISKPKGSVRAPQVYVLPPPEEEMTKKQVTLTCMVTDFMPEDIYVEWTNNGKTELNYKNTEPVLDSDGSYFMYSKLRVEKKNWVERNSYSCSVVHEGLHNHHTTKSFSRTPGK
light: SIVMTQTPKFLLISAGDRVTITCKASQSVNNDVAWYQQKPGQSPKLLIYYASNRYTGVPDHFTGSGYGTDFTFTISTVQAEDLAVYFCQQHYSSPWTFGGGTKLEFKRADAAPTVSIFPPSSEQLTSGGASVVCFLNNFYPKDINVKWKIDGSERQNGVLNSWTDQDSKDSTYSMSSTLTLTKDEYERHNSYTCEATHKTSTSPIVKSFNRNEC
notes: also called murine m40F5 antibody; murine 40F5
As to B2, the “EC50 (read off the curve)” value is around 0.03 µg/mL in assay [3]; around 0.02 µg/mL in assay [4]; around 0.02 µg/mL in assay [5]; around 0.02 µg/mL in assay [6]; around 0.005 µg/mL in assay [7]. Also, the binding result in [8], in [9] and in assay [10] was “no binding (tested: 10^4 ng/ml)” each time.

B3: bispecific antibody CD16A×B7H6 (bispecific antibody, human IgG1, L234A L235A)
chain 1: not shown
chain 2: DIVLTQTPLSLSVTPGQPASISCKASQSVDYDGDSYMNWYLQKPGQPPQLLIYAASTLHSGIPDRFSGSGSGTDFTLKISRVEAEDVGVYYCQQSKEDPRTFGQGTKLEIKGGGGSGGGGSGGGGSEVQLVQSGAEVKKPGASVKVSCKASGYTFTDYNMDWVRQAPGQGLEWIGDINPNNGGTLYNQKFRGRVTLTVDTSISTAYMELSRLRSDDTAVYYCARSEVFYGNYADYWGQGTTVTVSSEPKSCDKTHTCPPCPAPEAAGGPSVFLFPPKPKDTLMISRTPEVTCVVVDVSHEDPEVKFNWYVDGVEVHNAKTKPREEQYNSTYRVVSVLTVLHQDWLNGKEYKCKVSNKALPAPIEKTISKAKGQPREPQVCTLPPSREEMTKNQVSLSCAVKGFYPSDIAVEWESNGQPENNYKTTPPVLDSDGSFFLVSKLTVDKSRWQQGNVFSCSVMHEALHNHYTQKSLSLSPGK
notes: also called CD16A×B7H6 bispecific antibody
For the molecule B3, the half-maximal effective concentration (EC50 (read off the curve)) in assay [11] is around 0.005 µg/mL; in assay [12], around 0.05 µg/mL.
